This data set concerns the molecule itself. As to the kind of experiment: Thioflavin T fluorescence seeding assay; 10 µM monomeric Met-Aβ or CT-medin with 0.5 µM sonicated pre-formed seeds of either peptide; 50 mM Tris pH 8, 25 µM ThT, 30 °C.

Results on one protein are retold here after article PMC9712113, “Medin co-aggregates with vascular amyloid-β in Alzheimer’s disease” (Nature, 2022).

B1: C-terminal fragment of medin (peptide)
peptide: EVTGIITQGARNFGSVQFVASYK
notes: C-terminal fragment of medin / MFG-E8, identified in tissue extracts by mass spectrometry; also called CT-medin; C-terminal medin fragment; source: synthetic peptide (Intavis Multipep RSi solid phase synthesis, purity >90%)
Regarding B1, the binding result is on record as “binds”.
